Data from paper PMC11198818, “Positive charges promote the recognition of proteins by the chaperone SlyD from Escherichia coli” (PLOS ONE, 2024).
Where a chain is given by its changes, count along the chain named. cellulose membrane = Whatman 540 cellulose membrane solid support derivatized with two β-Ala residues; βAla = NCCC(=O)O

Assays:
[1] = molecular target: C-terminally hexahistidine-tagged SlyD from Escherichia coli (E. coli) (UniProt P0A9K9); test: ITC; VP-ITC, 30°C, 10 mM potassium phosphate pH 7.6 or 7.8; His-tagged SlyD or variant 30 μM in the cell; HiPIP precursor injected, 200 μM (Fig 3) or 100 μM (Fig 4)
[2] = molecular target: T1, SlyD from Escherichia coli, C-terminally tagged with a Strep-tag II (E. coli, UniProt P0A9K9 1-196, 35S-methionine label (peptide arrays)); test: peptide or protein array; 13-mer peptides synthesised in spots on cellulose membrane; 35S-methionine-labelled Strep-tagged SlyD incubated 2 h at room temperature, washed in TBS (31 mM Tris-HCl pH 7.6, 170 mM NaCl, 6.4 mM KCl), phosphorimaging; conditions: both partners purified
T1 construct: SlyD, chaperone and FKBP-family prolyl isomerase, Escherichia coli; also called Strep-tagged SlyD; 35S-labeled SlyD; source: E. coli BW25113 ΔdnaK (pBW-slyD-strep), soluble, purified (StrepTactin) for the peptide arrays; not shown: Strep-tag II, C-terminal, kept
T1 sequence: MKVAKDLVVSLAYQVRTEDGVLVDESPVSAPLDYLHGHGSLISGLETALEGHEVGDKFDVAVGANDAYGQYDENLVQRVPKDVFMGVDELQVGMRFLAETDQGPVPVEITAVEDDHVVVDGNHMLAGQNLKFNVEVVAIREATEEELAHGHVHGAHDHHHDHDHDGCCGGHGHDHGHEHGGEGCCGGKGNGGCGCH

[3] = molecular target: T2, C-terminally hexahistidine-tagged SlyD from Escherichia coli (E. coli, UniProt P0A9K9 1-196); test: ITC
T2 chain: T1 sequence

[4] = molecular target: SlyD E89A, C-terminally His-tagged (E. coli, UniProt P0A9K9 1-196, E89A); test: ITC
[5] = molecular target: SlyD F84N, C-terminally His-tagged (E. coli, UniProt P0A9K9 1-196, F84N); test: ITC
[6] = molecular target: SlyD F96N, C-terminally His-tagged (E. coli, UniProt P0A9K9 1-196, F96N); test: ITC
[7] = molecular target: SlyD F84N/F96N, C-terminally His-tagged (E. coli, UniProt P0A9K9 1-196, F84N | F96N); test: ITC
[8] = molecular target: SlyD F96G, C-terminally His-tagged (E. coli, UniProt P0A9K9 1-196, F96G); test: ITC
[9] = molecular target: SlyD F96A, C-terminally His-tagged (E. coli, UniProt P0A9K9 1-196, F96A); test: ITC
[10] = molecular target: SlyD E113A, C-terminally His-tagged (E. coli, UniProt P0A9K9 1-196, E113A); test: ITC
[11] = molecular target: single-exchange SlyD variants of the hydrophobic active site (F84A, F84N, F96A, F96G, F96N); test: ITC; VP-ITC, 30°C, 10 mM potassium phosphate pH 7.6 or 7.8; His-tagged SlyD or variant 30 μM in the cell; HiPIP precursor injected, 200 μM (Fig 3) or 100 μM (Fig 4)
[12] = molecular target: T3, C-terminally hexahistidine-tagged SlyD from Escherichia coli (E. coli, UniProt P0A9K9 1-196); test: as above; conditions: both partners purified
T3 construct: SlyD, chaperone and FKBP-family prolyl isomerase, Escherichia coli; also called His-tagged SlyD; wild type; not shown: His6, C-terminal, kept
T3 sequence: T1 sequence

[13] = molecular target: T4, SlyD E108A, C-terminally His-tagged (E. coli, UniProt P0A9K9 1-196, E108A); test: as above; conditions: both partners purified
T4 construct: SlyD, Escherichia coli; not shown: His6, C-terminal, kept
T4 sequence: T1 sequence with E108A

[14] = molecular target: T5, SlyD D101A, C-terminally His-tagged (E. coli, UniProt P0A9K9 1-196, D101A); test: as above; conditions: both partners purified
T5 construct: SlyD, Escherichia coli; not shown: His6, C-terminal, kept
T5 sequence: T1 sequence with D101A

[15] = molecular target: T6, SlyD E73A, C-terminally hexahistidine-tagged (Escherichia coli, UniProt P0A9K9 1-196, E73A); test: ITC; VP-ITC, 30°C, 10 mM potassium phosphate buffer (pH 7.6 or 7.8); SlyD variant 30 μM in the cell, HiPIP precursor 100 μM injected (2x 22 injections of 10 μL); conditions: both partners purified
T6 construct: SlyD of Escherichia coli (FKBP-type prolyl isomerase and chaperone); not shown: His6, C-terminal, kept
T6 sequence: T1 sequence with E73A

[16] = molecular target: T7, SlyD E89A, C-terminally hexahistidine-tagged (Escherichia coli, UniProt P0A9K9 1-196, E89A); test: as above; conditions: both partners purified
T7 construct: SlyD of Escherichia coli (FKBP-type prolyl isomerase and chaperone); not shown: His6, C-terminal, kept
T7 sequence: T1 sequence with E89A

[17] = molecular target: T8, SlyD Y68S, C-terminally hexahistidine-tagged (Escherichia coli, UniProt P0A9K9 1-196, Y68S); test: as above; conditions: both partners purified
T8 construct: SlyD of Escherichia coli (FKBP-type prolyl isomerase and chaperone); not shown: His6, C-terminal, kept
T8 sequence: T1 sequence with Y68S

[18] = molecular target: T9, SlyD E113A, C-terminally hexahistidine-tagged (Escherichia coli, UniProt P0A9K9 1-196, E113A); test: as above; conditions: both partners purified
T9 construct: SlyD of Escherichia coli (FKBP-type prolyl isomerase and chaperone); not shown: His6, C-terminal, kept
T9 sequence: T1 sequence with E113A

[19] = molecular target: T10, SlyD D115A, C-terminally hexahistidine-tagged (Escherichia coli, UniProt P0A9K9 1-196, D115A); test: as above; conditions: both partners purified
T10 construct: SlyD of Escherichia coli (FKBP-type prolyl isomerase and chaperone); not shown: His6, C-terminal, kept
T10 sequence: T1 sequence with D115A

Molecule: HiPIP precursor with an RR>KK exchange (from UniProt P00260 38-122) (natural protein)
- Kd [1]: 1180 nM
- dH [1]: -7.7 kcal/mol

B1: twin-lysine peptide in an oligoglycine environment (GGGGGXXGGGGGG, X = K) (peptide)
peptide: Ac-GGGGGKKGGGGGG-{βAla-βAla-cellulose membrane}
notes: the printed pattern GGGGGXXGGGGGG with X = K; The acetyl group and the spacer are told in the methods for the spot synthesis in general; also called lysines in a glycine environment; source: synthetic peptide, spot synthesis on cellulose membrane
- binding result [2]: binds

B2: twin-arginine peptide in an oligoglycine environment (GGGGGXXGGGGGG, X = R) (peptide)
peptide: Ac-GGGGGRRGGGGGG-{βAla-βAla-cellulose membrane}
notes: the printed pattern GGGGGXXGGGGGG with X = R; The acetyl group and the spacer are told in the methods for the spot synthesis in general; also called arginines in a glycine environment; source: synthetic peptide, spot synthesis on cellulose membrane
- binding result [2]: binds

B3: wild type HiPIP precursor from Allochromatium vinosum (natural protein, UniProt P00260 1-122, looked up)
chain: MSDKPISKSRRDAVKVMLGTAAAIPMINLVGFGTARASAPANAVAADDATAIALKYNQDATKSERVAAARPGLPPEEQHCANCQFMQADAAGATDEWKGCQLFPGKLINVNGWCASWTLKAG
notes: HiPIP (high-potential iron-sulfur protein), Allochromatium vinosum; the precursor with its Tat signal peptide; Called a fully folded Tat substrate; also called RR-HiPIP; signal-peptide-containing HiPIP precursor
- Kd [3]: 400 nM
- Kd [4]: 400 nM
- Kd [5]: 6600 nM
- Kd [6]: 8900 nM
- Kd [7]: > 360000 nM
- Kd [8]: 5700 nM
- Kd [9]: 4900 nM
- Kd [10]: 500 nM
- Kd [11]: 4000 to 10000 nM
- Kd [12]: ~350 nM
- dH [12]: ~-9.06 kcal/mol
- Kd [13]: 1820 nM
- Kd [14]: 950 nM

B4: HiPIP precursor with an RR>QQ exchange (natural protein)
chain: B3 chain with R10Q, R11Q
modifications: HiPIP precursor; [4Fe-4S] cluster presumed; RR>QQ positions derived from primer hip-QQ-F, which encodes DKPISKSQQDAVKVML
- Kd [12]: 38700 ± 2000 nM

B5: HiPIP precursor (RR-HiPIP) from Allochromatium vinosum (natural protein)
chain: B3 chain
modifications: HiPIP precursor; fully folded, [4Fe-4S] cluster presumed; signal peptide retained
- Kd [15]: 321 nM
- Kd [16]: 380 nM
- Kd [17]: 299 nM
- Kd [18]: 493 nM
- Kd [19]: 272 nM
